A short description of this data set: soluble on expression in E. coli; label from the status in PepcDB or PDB records.
On to “MAEGDLSFFVMLARRESFSATAQDLGLSASAVSRRLARLEDRLGVRLLNRTTRKVSLTSEGEAYYGAALRLLDEIADLEHNLSQGRDRPAGLLRINATLGFGRTHLAPAIARFRRIHPAVEVQLLLTDAPLNLVEEGIDLGIRFGAPPFGRMVMRLLQRNRRFLCAAPSYLEARGVPQSLTDLQQHSCIVLRQDHDAYDVWRFDDIGEASPSAKVSGELSTNDGEIALAWVLDGQGIMLRSEWDIAQHVREGRLRLLLPHYRQTANIHAIYPERHNLSAKVRVFADHLAAHVRDADARMPLQLAAAELRAATARA”, for which the “soluble on expression in E. coli” value is given as “not soluble”.
The entry for “MAEGGGGVGVVYVLENEAYLSKEGGTLKVSRRAGREVLLQKPLIAVEEIVILGNAVVTPALLKHCAQEGVGIHYLSPTGTYYAGLTRTPSKNAPARVAQFKAYLEPTWKLALAQRFVLGKIRNGLVFLRRNGAEGWERLKEALLEAERAQDEEALRGAEGRAADLYFRAFAELLPEEFAFGERSRRPPRDPANSLLSLAYTLLAKECESALLVAGLDPYVGYLHEVRYGRPSLALDLMEEFRSVLADSVVLSLLNNRRVTLEDFDDSEGFPRLRKEAWPKFLRAWEGRLNERIQHPLLGKRLAYREILLAQARILVKHLLGELPRYEPFAVR” is “soluble”; for “MAEHEQVNWPYVNTKLKRDPAVEAQIEKLLAKMTIEQKVAQMIQPEIGYLTVEQMRKYGFGSYLNGGNTAPYGNKRADQATWLKYADEMYLAAMDSTLDGIAIPTVWGTDAMHGHSNVYGATLFPHNIGLGAARDTDLIKRIGQATAKEVAATGIEWSFAPTVAVVRDDRWGRTYESYSEDPDLVKRYAGEMVTGIQGDVGADFLKGSNRIATAKHFVGDGGTERGVDRGNTLIDEKGLRDIHSAGYFSAINQGVQSVMASFNSWNGKRVHGDKHLLTDVLKNQLGFDGFVVSDWNAHKFVEGCDLEQCAQAINAGVDVIMVPEHFEAFYHNTVKQVKAGVIAESRINDAVRRFLRAKIRWGVFTKSKPSARPESQHPQWLGAAEHRTLAREAVRKSLVLLKNNESILPIKASSRILVAGKGANAINMQAGGWSVSWQGTDNTNSDFPNATSIFSGLQSQVTKAGGKITLSESGEYTSKPDVAIVVIGEEPYAEWFGDIELLEFQHETKHALALLKQLKADNIPVVTVFLSGRPLWVNKELNASDAFVAAWLPGSEGEGVADVLLTNKQGKTQFDFTGKLSFSWPKYDDQFTLNLNDADYDPLFAYGYGLTYQDNINVPVLSEKTSPKKTVNSDSHPLFVRSLAKNMTWQLADTSTQKVLASGASATSGDKQSLLMQSVNLSYQEDGRGFNWRAQAALSLSYLEPTPLDSKFSTGYLELKMRIDKAPEQGANLQVMCSESNCLRDIDFSSFSQLMADKSWHTLAIPLHCDDSDQAEQPITDALRITSQNLSLAIADVALTIKPSDDSISLTCAKLEHHHHHH” it is “soluble”.
With “MAEIDYKKVTGMIHSTESFGSVDGPGIRFIIFMQGCKMRCQYCHNPDTWEMETNNSKERTVEDVLKEALRYKHFWGKDGGITVSGGEAMLQIDFITALFIEAKKLGIHTTLDTCGFAYRATPEYHAILEKLLDVTDLVLLDLKEIDSEQHKIVTRQSNKNILQFARYLSDRGTPVWIRHVLVPGLTDIDDHLKRLGEFVQTLDNVDKFEVLPYHTMGEFKWRELGIPYPLAGVKPPTPERVKNAKDIMKTESYTEYLKRIQN” the entry was “soluble”; with “MAEIHYLISDASKKVDVEAHVLRYWEEELELPIPRNDMGHRYYTDFHIRLFKQVKVLKEKGYQLKAIKTALAKSLQDGKVIIPSEVLEEDVIAALKETGIGEQDMKEQKGNENKNGEKRADEKVKDGQACEGGGEAGLTALDKDSVEALLAGEKMEQFQKVMNHIIGRAMEENSEKLSQDISYLVHDKLMKEMEYLMRVSDEREEERFKQLDEVIRAYQRDNQGRAEAAASVTGFPFFRFKKKKFGRNGNKL”, “not soluble”.
“MAEKNHQQQERLPGNPFFPSRSNAGSSFDMPETPHLIDSLTSQIDEFTIQSIIDTQRQSLKRFEKTNEMLMNCAQLGDRRIEKAKRDSVGHKETILQMKTDLEFIFKKIRMFKTVLSSKYPEVYAEVSAELTPKRSEEDE”: the “soluble on expression in E. coli” value is “not soluble”.
Turning to “MAEMGSKGVTAGKIASNVQKKLTRAQEKVLQKLGKADETKDEQFEQCVQNFNKQLTEGTRLQKDLRTYLASVKAMHEASKKLNECLQEVYEPDWPGRDEANKIAENNDLLWMDYHQKLVDQALLTMDTYLGQFPDIKSRIAKRGRKLVDYDSARHHYESLQTAKKKDEAKIAKAEEELIKAQKVFEEMNVDLQEELPSLWNSRVGFYVNTFQSIAGLEENFHKEMSKLNQNLNDVLVGLEKQHGSNTFTVKAQPSDNAPAKGNKSPSPPDGSPAATPEIRVNHEPEPAGGATPGATLPKSPSQSSLPAVVVETFPATVNGTVEGGSGAGRLDLPPGFMFKVQAQHDYTATDTDELQLKAGDVVLVIPFQNPEEQDEGWLMGVKESDWNQHKELEKCRGVFPENFTERVP”, the “soluble on expression in E. coli” value is given as “soluble”.
For “MAEMTEMQVHEERVMNLVESSSGTPTITPLTKTNAHRAESIRRIGTDKDAVAFHFRKKSTGMYMYIHTYTENGEEKELRASDFKNWEVTEFKYPGYLEELEEIAVNAYRWNSHDPETRAETDIMGYEKQLHEDLKKIPEAKKRITSILTKVKYPFYSTASHAAQTRW”, the “soluble on expression in E. coli” value was “not soluble”.
In the case of “MAFEFKLPDIGEGIHEGEIVKWFVKPGDEVNEDDVLCEVQNDKAVVEIPSPVKGKVLEILVPEGTVATVGQTLITLDAPGYENMTFKGQEQEEAKKEEKTETVSKEEKVDAVAPNAPAAEAEAGPNRRVIAMPSVRKYAREKGVDIRLVQGTGKNGRVLKEDIDAFLAGGAKPAPAAAEEKAAPAAAKPATTEGEFPETREKMSGIRRAIAKAMVHSKHTAPHVTLMDEADVTKLVAHRKKFKAIAAEKGIKLTFLPYVVKALVSALREYPVLNTSIDDETEEIIQKHYYNIGIAADTDRGLLVPVIKHADRKPIFALAQEINELAEKARDGKLTPGEMKGASCTITNIGSAGGQWFTPVINHPEVAILGIGRIAEKPIVRDGEIVAAPMLALSLSFDHRMIDGATAQKALNHIKRLLSDPELLLMEA”, the “soluble on expression in E. coli” value is on record as “soluble”.
“MAFLRSMWGVLSALGRSGAELCTGCGSRLRSPFSFVYLPRWFSSVLASCPKKPVSSYLRFSKEQLPIFKAQNPDAKTTELIRRIAQRWRELPDSKKKIYQDAYRAEWQVYKEEISRFKEQLTPSQIMSLEKEIMDKHLKRKAMTKKKELTLLGKPKRPRSAYNVYVAERFQEAKGDSPQEKLKTVKENWKNLSDSEKELYIQHAKEDETRYHNEMKSWEEQMIEVGRKDLLRRTIKKQRKYGAEEC”: the “soluble on expression in E. coli” value is “soluble”.
Take “MAFPFDILHLEIIRSTLESEKDRCEAKEKFGTIIDNLNGPADIEKYESLVQKAFLHANAETKLESIGFRVGRQLVEKVSKESPKLVTELEIVKFICKDFWSSVFGKQVDNLRTNHQGVYVVQDGRFTTLRSFPEGDQYVKESGYFLAFPCGLLRGALAGLNIRAIVTPTIESVPSVKFHIQVQPK”: the “soluble on expression in E. coli” value is “not soluble”.
With “MAFRSKFAVLDESWTYVRVRRGPRRQNLWIWNALIDGVPFFVTGDRDYNTFRLLWLSLPKCEVHYTDDYPIYQVLYHHVVGKKYTHTVESYNSFCRSHLVRLARDTKAVNRSRAMIDYSLDLLNVMYPQLEHHHHHH” the entry was “not soluble”; with “MAFVLNGQDLDALATGGCFFGSGGGGTLSSAKGLLRHFNKGAYYPADQVTVVTVDEAVSAAEGDAVMVAYMGSPQAINGSSYPEGPVGAAENIQGKLATQGRKLAYIVPPESGALGFVVACLVAVRLGLKVIDADGAGRAVPSLPMLTYAAAAISPRPAVLVSQEGLQVELDVTPRDGENGSVTHQQDVAAIIENMMRPIVAAAQFKEFGGLAMWVMAPEQFSAALPIHGTLSRAVKTGHALAAGELDTAARMQDFLKRESGLLARPIFTGQFKAVEVSTGAGFDVGKMHIVSAEATCTVVYQNESMLAWDSRAAAPLVTAPDSLAYFVSGPGQSVYSNGDAVLADGTLSPSLKDRTVTLFAWQADAALRTPDGQILASFMGLLADMGYLGPYISVEAMQLATAGESRPLEHHHHHH”, “not soluble”; with “MAGASETYTHTLTDVPIDIKYDSDDYFISGYSYGADVYMSSVNRVKLDSEINEDTRKFKVVADLTNMKPGTHKVPLKVVNLPSGVNATVSPTTITVTMGKKKTLEHHHHHH”, “soluble”.
For the sequence “MAGDPMKIYFEAYGCTLNQGETALYVNKLLNEGNTLVSNPKEADLSIIGTCAVIKKTEDHMMARIQNLSRFGKVEVIGCLAPVKGKTMVEDNVSVIEKDRFRSFQEVIDEVSPVNAEIVSGIPINQGCTGKCNFCVSHIARGKLVSRKPEKIAGQIKILLQRGIKEIKITSLDTAAYGKDIGLRLPHLIRTITEIGDDFRLRVGMMEPKNTLEIVDDLISAYRSEKVFKFLHLPVQSGDDYVLEVMNREYTVSDFIRITGKFREAFPDSTLSTDLIIGYYAENDDSFEKTVQLIEKIRPEIINVTKFSPRELTADFEKRPKPTNILKEQDRMIADMHKEILQEKFSNLIGKTEFVLITENGKGRSMIGRDHAYRPIVIMDKTRKFEFHQVEITGFENTSLIGRIIDLEHHHHHH”, the “soluble on expression in E. coli” value is given as “not soluble”.
In the case of “MAGDPMLNSFKLSLQYILPKLWLTRLAGWGASKRAGWLTKLVIDLFVKYYKVDMTEAQKPDTASYRTFNDFFVRPLRDDVRPLNTDPNILVMPADGVISQLGRIEEDKILQAKGHNYSLEALLAGNYLMADKFRNGTFVTTYLSPRDYHRVHMPCNGILREMIYVPGDLFSVNHLTAQNVPNLFARNERVICLFDTEFGPMAQILVGATIVGSIETVWAGTITPPREGIIKRWTWPEGEHEGSVALLKGQEMGRFKLGSTVINLFAPGKVNLIASLASLSVTKIGQPLATSTETFVAPEVEPAPLPAEEIKAEHDASPLVDNKKDDTLEHHHHHH”, the “soluble on expression in E. coli” value is given as “soluble”.
With “MAGFPGKEAGPPGGWRKCQEDESPENERHENFYAEIDDFAPSVLTPTGSDSGAGEEDDDGLYQVPTHWPPLMAPTGLSGERVPCRTQAAVTSNTGNSPGSRHTSCPFTLPRGAQPPAPAHQKPTAPTPKPRSRECGPSKTPDPFSWFRKTSCTEGGADSTSRSFMYQKGFEEGLAGLGLDDKSDCESEDESNFRRPSSHSALKQKNGGKGKPSGLFEHLAAHGREFSKLSKHAAQLKRLSGSVMNVLNLDDAQDTRQAKAQRKESMRVPIVTHLTNHVPVIKPACSLFLEGAPGVGKTTMLNHLKAVFGDLTIVVPEPMRYWTHVYENAIKAMHKNVTRARHGREDTSAEVLACQMKFTTPFRVLASRKRSLLVTESGARSVAPLDCWILHDRHLLSASVVFPLMLLRSQLLSYSDFIQVLATFTADPGDTIVWMKLNVEENMRRLKKRGRKHESGLDAGYLKSVNDAYHAVYCAWLLTQYFAPEDIVKVCAGLTTITTVCHQSHTPIIRSGVAEKLYKNSIFSVLKEVIQPFRADAVLLEVCLAFTRTLAYLQFVLVDLSEFQDDLPGCWTEIYMQALKNPAIRSQFFDWAGLSKVISDFERGNRD” the entry was “not soluble”.
On to “MAGKITVVGLGAGDMDQLTIGIHKLLTKADTLYVRTKDHPLIEELEKETKNIRFFDDIYEKHDQFEAVYEEIADILFEAARREDVVYAVPGHPFVAEKTVQLLTERQEKENVQVKVAGGQSFLDATFNVLQIDPIEGFQFVDAGTLSADELELRHHLIICQVYDQMTASEVKLTLMEKLPDDYEVVIVTAAGSRGEEIRTVPLFELDRNVALNNLTSVYIPPIKEEKLLYHEFSTFRSIIRELRGPNGCPWDKKQTHQSLKQYMIEECYELLEAIDEEDTDHMIEELGDVLLQVLLHAQIGEDEGYFTIDDVIKGISEKMVRRHPHVFKDVKVQDENDVLANWEDIKKAEKNTSESSLLDSVPKTLPALSKAAKLQKKAAKVGFDWEDVSDIWEKVSEEMKEFSSEVSEAPHEHNLKAEFGDILFALVNVARFYKIEPEEALTMTNDKFRRRFSYIEETAKEEGVELADMSLEDMDKLWNEAKETERRS”, for which the “soluble on expression in E. coli” value is recorded as “soluble”.

The record behind these values is the DeepSol protein solubility set.
